In publication PMC8888459 (2022):
One block for each binder: values may come before it.

B2: Yah1-GST fusion protein (natural protein)
chain: IAAHLLRTSPSLLTRTTTTTRFLPFSTSSFLNHGHLKKPKPGEELKITFILKDGSQKTYEVCEGETILDIAQGHNLDMEGACGGSCACSTCHVIVDPDYYDALPEPEDDENDMLDLAYGLTETSRLGCQIKMSKDIDGIRVALPQMTRNVNNNDFS

Columns and labels:
Yah1-GST fusion protein [1] = biological target: B2; experiment: BLI; anaerobic, reduced Yah1 (Fig. 6C); kd2 of 2:1 fit, second site
Yah1-GST fusion protein [2] = biological target: B2; experiment: BLI; kd2 of 2:1 fit, second site
Yah1-GST fusion protein [3] = biological target: B2; experiment: BLI; anaerobic, reduced Yah1; KD1 of 2:1 fit (37%)
Yah1-GST fusion protein [4] = biological target: B2; experiment: BLI; anaerobic, reduced Yah1 (Fig. 6C); KD1 of 2:1 fit (45%)
Yah1-GST fusion protein [5] = biological target: B2; experiment: BLI; anaerobic, reduced Yah1; kd1 of 2:1 fit
Yah1-GST fusion protein [6] = biological target: B2; experiment: BLI; anaerobic, reduced Yah1 (Fig. 6C); kd1 of 2:1 fit
Yah1-GST fusion protein [7] = biological target: B2; experiment: BLI; KD1 of 2:1 heterogeneous ligand fit (38%)
Yah1-GST fusion protein [8] = biological target: B2; experiment: BLI; kd1 of 2:1 fit
Yah1-GST fusion protein [9] = biological target: B2; experiment: BLI; anaerobic, reduced Yah1; KD2 of 2:1 fit (63%), second site
Yah1-GST fusion protein [10] = biological target: B2; experiment: BLI; KD2 of 2:1 heterogeneous ligand fit (62%), second site
Yah1-GST fusion protein [11] = biological target: B2; experiment: BLI; anaerobic, reduced Yah1 (Fig. 6C); KD2 of 2:1 fit (55%), second site
Yah1-GST fusion protein [12] = biological target: B2; experiment: BLI; anaerobic, reduced Yah1; kd2 of 2:1 fit, second site
[13] = biological target: T1, NIA–Isu1 complex with C. thermophilum Isu1 (S. cerevisiae | E. coli (endogenous in …, UniProt P25374 37-497; Q6Q560 1-94; P0A6A8 1-78); experiment: BLI; KD2 of 2:1 heterogeneous ligand fit (54%), second site
[14] = biological target: T1, NIA–Isu1 complex with C. thermophilum …; experiment: BLI; KD1 of 2:1 heterogeneous ligand fit (43%)
[15] = biological target: T1, NIA–Isu1 complex with C. thermophilum …; experiment: BLI; kd2 of 2:1 fit, second site
[16] = biological target: T1, NIA–Isu1 complex with C. thermophilum …; experiment: BLI; KD2 of 2:1 heterogeneous ligand fit (57%), second site
[17] = biological target: T1, NIA–Isu1 complex with C. thermophilum …; experiment: BLI; KD1 of 2:1 heterogeneous ligand fit (46%)
[18] = biological target: T1, NIA–Isu1 complex with C. thermophilum …; experiment: BLI; kd2 of 2:1 fit, second site; remark: listed apart in the source
[19] = biological target: T1, NIA–Isu1 complex with C. thermophilum …; experiment: BLI; kd1 of 2:1 fit
[20] = biological target: T1, NIA–Isu1 complex with C. thermophilum …; experiment: BLI; kd1 of 2:1 fit; remark: listed apart in the source
[21] = biological target: T2, NIA complex (Nfs1–Isd11–ACPEc) (S. cerevisiae | E. coli (endogenous in …, UniProt P25374 37-497; Q6Q560 1-94; P0A6A8 1-78); experiment: BLI; kd1 of 2:1 fit
T2 chain 1: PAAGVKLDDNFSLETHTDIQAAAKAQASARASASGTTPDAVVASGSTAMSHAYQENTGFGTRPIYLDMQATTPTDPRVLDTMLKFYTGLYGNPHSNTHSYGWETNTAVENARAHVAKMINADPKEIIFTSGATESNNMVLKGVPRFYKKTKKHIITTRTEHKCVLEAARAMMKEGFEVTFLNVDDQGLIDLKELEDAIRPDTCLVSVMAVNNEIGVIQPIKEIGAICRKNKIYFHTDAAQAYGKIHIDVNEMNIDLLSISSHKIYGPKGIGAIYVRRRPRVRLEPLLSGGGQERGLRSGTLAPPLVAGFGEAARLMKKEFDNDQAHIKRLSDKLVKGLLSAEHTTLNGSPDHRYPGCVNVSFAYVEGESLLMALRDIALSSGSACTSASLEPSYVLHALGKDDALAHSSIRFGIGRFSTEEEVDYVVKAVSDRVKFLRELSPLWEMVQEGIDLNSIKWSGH
T2 chain 2: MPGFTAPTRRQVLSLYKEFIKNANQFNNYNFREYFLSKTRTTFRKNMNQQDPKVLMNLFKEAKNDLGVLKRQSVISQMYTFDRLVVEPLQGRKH
T2 chain 3: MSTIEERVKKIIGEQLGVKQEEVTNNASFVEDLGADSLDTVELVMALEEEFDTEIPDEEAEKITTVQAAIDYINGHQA

[22] = biological target: T2, NIA complex (Nfs1–Isd11–ACPEc); experiment: BLI; KD2 of 2:1 heterogeneous ligand fit (39%), second site
[23] = biological target: T2, NIA complex (Nfs1–Isd11–ACPEc); experiment: BLI; kd2 of 2:1 fit, second site
[24] = biological target: T2, NIA complex (Nfs1–Isd11–ACPEc); experiment: BLI; KD1 of 2:1 heterogeneous ligand fit (61%)

- koff (Yah1-GST fusion protein [1]): 0.00777 s⁻¹
- koff (Yah1-GST fusion protein [2]): 0.0375 s⁻¹
- Kd (Yah1-GST fusion protein [3]): 0.0165 nM
- Kd (Yah1-GST fusion protein [4]): 0.02 nM
- koff (Yah1-GST fusion protein [5]): 4.05e-07 s⁻¹
- koff (Yah1-GST fusion protein [6]): 4.99e-07 s⁻¹
- Kd (Yah1-GST fusion protein [7]): 325 nM
- koff (Yah1-GST fusion protein [8]): 0.000977 s⁻¹
- Kd (Yah1-GST fusion protein [9]): 15.3 nM
- Kd (Yah1-GST fusion protein [10]): 660 nM
- Kd (Yah1-GST fusion protein [11]): 19.2 nM
- koff (Yah1-GST fusion protein [12]): 0.00421 s⁻¹
B1: NIA–Isu1 complex with S. cerevisiae Isu1 (complex)
chain 1: PAAGVKLDDNFSLETHTDIQAAAKAQASARASASGTTPDAVVASGSTAMSHAYQENTGFGTRPIYLDMQATTPTDPRVLDTMLKFYTGLYGNPHSNTHSYGWETNTAVENARAHVAKMINADPKEIIFTSGATESNNMVLKGVPRFYKKTKKHIITTRTEHKCVLEAARAMMKEGFEVTFLNVDDQGLIDLKELEDAIRPDTCLVSVMAVNNEIGVIQPIKEIGAICRKNKIYFHTDAAQAYGKIHIDVNEMNIDLLSISSHKIYGPKGIGAIYVRRRPRVRLEPLLSGGGQERGLRSGTLAPPLVAGFGEAARLMKKEFDNDQAHIKRLSDKLVKGLLSAEHTTLNGSPDHRYPGCVNVSFAYVEGESLLMALRDIALSSGSACTSASLEPSYVLHALGKDDALAHSSIRFGIGRFSTEEEVDYVVKAVSDRVKFLRELSPLWEMVQEGIDLNSIKWSGH
chain 2: MPGFTAPTRRQVLSLYKEFIKNANQFNNYNFREYFLSKTRTTFRKNMNQQDPKVLMNLFKEAKNDLGVLKRQSVISQMYTFDRLVVEPLQGRKH
chain 3: MSTIEERVKKIIGEQLGVKQEEVTNNASFVEDLGADSLDTVELVMALEEEFDTEIPDEEAEKITTVQAAIDYINGHQA
chain 4: SSITKRLYHPKVIEHYTHPRNVGSLDKKLPNVGTGLVGAPACGDVMRLQIKVNDSTGVIEDVKFKTFGCGSAIASSSYMTELVQGMTLDDAAKIKNTEIAKELSLPPVKLHCSMLAEDAIKAAIKDYKSKRNTPTMLS

Binder: B2
- Kd [13]: 212 nM
- Kd [14]: 184 nM
- koff [15]: 0.109 s⁻¹
- Kd [16]: 800 nM
- Kd [17]: 228 nM
- koff [18]: 0.0403 s⁻¹
- koff [19]: 0.00118 s⁻¹
- koff [20]: 0.00167 s⁻¹

- koff [21]: 2.08e-07 s⁻¹
- Kd [22]: 544 nM
- koff [23]: 0.00156 s⁻¹
- Kd [24]: 0.307 nM
B3: Yah1 (untagged, holo) (natural protein)
chain: IAAHLLRTSPSLLTRTTTTTRFLPFSTSSFLNHGHLKKPKPGEELKITFILKDGSQKTYEVCEGETILDIAQGHNLDMEGACGGSCACSTCHVIVDPDYYDALPEPEDDENDMLDLAYGLTETSRLGCQIKMSKDIDGIRVALPQMTRNVNNNDFS
